Data as given in patent US20090136481A1.

Target: recombinant myostatin
Assay: cell-based or functional assay

macrophage migration in chemotaxis assay (ZAMS medium with 5 µg/ml myostatin, with or without 350 protein): 20 fold
Substance: 350 protein (dominant negative peptide of myostatin C-terminally truncated at amino acid 350; amino acids 267-350 of bovine myostatin) (from UniProt O18836 267-350)
